This assay concerns the target VEGF165 (UniProt P15692). Briefly: cell-based or functional assay.
UniProt P15692, sequence (P15692 other isoform, or with tags, fused parts or gaps): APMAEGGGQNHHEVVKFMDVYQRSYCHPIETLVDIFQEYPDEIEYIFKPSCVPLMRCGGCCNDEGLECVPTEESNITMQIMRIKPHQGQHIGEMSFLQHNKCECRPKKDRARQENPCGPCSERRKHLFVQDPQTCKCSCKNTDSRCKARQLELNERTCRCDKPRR

For the substance Conbercept(康柏西普) (Fc fusion), the HUVEC细胞增殖抑制 EC50 came to 0.221 nM.

(Values after patent publication CN114685674A.)
